Data taken from US20220135670A1 (TESARO, published 2022).

Tests used:
[1] = target: DyLight 650 (DyL650)-labeled LAG-3 fusion protein; experiment: flow cytometry competition: antibody titrated against binding of the DyL650-labeled LAG-3 fusion protein to MHC class II on Daudi cells; readout MFI (Dyl650)
[2] = target: T1, LAG-3 (axis label "%LAG-3 OCCUPANCY", DONOR 1 to DONOR 4) (human, UniProt P18627); experiment: receptor occupancy assay on SEB-stimulated human donor PBMCs (4 donors)
T1 construct: full-length, on the cell surface; also called LAG-3 on SEB-stimulated human donor PBMCs
T1 sequence (receptor, looked up): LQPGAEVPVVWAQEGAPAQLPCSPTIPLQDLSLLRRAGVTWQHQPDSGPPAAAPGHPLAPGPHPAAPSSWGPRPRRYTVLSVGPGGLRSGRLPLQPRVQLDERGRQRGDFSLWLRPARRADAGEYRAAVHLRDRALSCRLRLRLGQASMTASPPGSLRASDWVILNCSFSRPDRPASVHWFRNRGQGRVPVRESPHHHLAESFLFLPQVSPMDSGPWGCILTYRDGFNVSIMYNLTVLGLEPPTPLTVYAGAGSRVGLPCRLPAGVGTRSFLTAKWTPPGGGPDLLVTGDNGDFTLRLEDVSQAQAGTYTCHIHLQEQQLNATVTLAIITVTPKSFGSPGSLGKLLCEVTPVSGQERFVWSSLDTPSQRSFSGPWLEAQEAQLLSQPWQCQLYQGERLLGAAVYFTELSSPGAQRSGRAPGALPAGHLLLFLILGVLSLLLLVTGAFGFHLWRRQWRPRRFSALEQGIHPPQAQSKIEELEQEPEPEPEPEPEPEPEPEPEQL

[3] = target: T2, recombinant soluble human LAG-3 (human, UniProt P18627 23-450, limits assumed); experiment: SPR, recombinant soluble LAG-3
T2 construct: also called soluble LAG-3
T2 sequence (looked up): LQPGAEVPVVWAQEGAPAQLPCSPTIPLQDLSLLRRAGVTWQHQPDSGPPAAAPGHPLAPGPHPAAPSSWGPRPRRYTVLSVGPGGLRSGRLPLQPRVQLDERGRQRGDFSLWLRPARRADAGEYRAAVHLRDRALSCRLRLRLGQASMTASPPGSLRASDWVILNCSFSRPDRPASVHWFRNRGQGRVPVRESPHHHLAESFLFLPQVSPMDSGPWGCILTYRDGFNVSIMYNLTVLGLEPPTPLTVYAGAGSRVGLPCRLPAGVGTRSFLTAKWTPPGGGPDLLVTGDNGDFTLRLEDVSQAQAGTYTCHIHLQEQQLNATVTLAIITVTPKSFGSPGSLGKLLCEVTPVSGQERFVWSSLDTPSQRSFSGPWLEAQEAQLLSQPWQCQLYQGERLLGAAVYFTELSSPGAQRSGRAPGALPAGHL

[4] = target: T3, recombinant soluble cynomolgus monkey LAG-3 (cynomolgus monkey); experiment: SPR, recombinant soluble LAG-3
T3 construct: also called Cyno LAG-3; soluble LAG-3

[5] = target: T4, LAG-3 expressed on Jurkat cells (Homo sapiens (Human), UniProt P18627 23-525); experiment: cell-based or functional assay
T4 sequence: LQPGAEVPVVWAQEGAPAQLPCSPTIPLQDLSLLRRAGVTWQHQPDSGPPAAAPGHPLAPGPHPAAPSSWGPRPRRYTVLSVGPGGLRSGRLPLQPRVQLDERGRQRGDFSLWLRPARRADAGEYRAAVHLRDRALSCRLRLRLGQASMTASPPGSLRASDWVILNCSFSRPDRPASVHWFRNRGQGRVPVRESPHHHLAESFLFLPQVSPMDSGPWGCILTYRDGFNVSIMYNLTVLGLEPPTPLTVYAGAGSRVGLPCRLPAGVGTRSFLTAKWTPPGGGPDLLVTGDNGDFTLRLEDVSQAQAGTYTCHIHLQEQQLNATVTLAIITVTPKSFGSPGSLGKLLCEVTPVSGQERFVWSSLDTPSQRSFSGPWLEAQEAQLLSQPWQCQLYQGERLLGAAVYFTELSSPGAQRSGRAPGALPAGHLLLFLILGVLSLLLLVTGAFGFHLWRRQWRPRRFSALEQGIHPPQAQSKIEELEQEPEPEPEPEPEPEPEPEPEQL

[6] = target: T5, cynomolgus monkey LAG-3 expressed on the surface of CHO cells (cynomolgus monkey); experiment: binding to LAG-3 expressing CHO cells
T5 construct: whole, on cells; also called Cyno LAG-3; LAG-3 expressing CHO cells

[7] = target: T6, human LAG-3 expressed on the surface of CHO cells (human, UniProt P18627 23-525); experiment: binding to LAG-3 expressing CHO cells
T6 construct: whole, on cells; also called LAG-3 expressing CHO cells; cell-surface-expressed LAG-3
T6 sequence (looked up): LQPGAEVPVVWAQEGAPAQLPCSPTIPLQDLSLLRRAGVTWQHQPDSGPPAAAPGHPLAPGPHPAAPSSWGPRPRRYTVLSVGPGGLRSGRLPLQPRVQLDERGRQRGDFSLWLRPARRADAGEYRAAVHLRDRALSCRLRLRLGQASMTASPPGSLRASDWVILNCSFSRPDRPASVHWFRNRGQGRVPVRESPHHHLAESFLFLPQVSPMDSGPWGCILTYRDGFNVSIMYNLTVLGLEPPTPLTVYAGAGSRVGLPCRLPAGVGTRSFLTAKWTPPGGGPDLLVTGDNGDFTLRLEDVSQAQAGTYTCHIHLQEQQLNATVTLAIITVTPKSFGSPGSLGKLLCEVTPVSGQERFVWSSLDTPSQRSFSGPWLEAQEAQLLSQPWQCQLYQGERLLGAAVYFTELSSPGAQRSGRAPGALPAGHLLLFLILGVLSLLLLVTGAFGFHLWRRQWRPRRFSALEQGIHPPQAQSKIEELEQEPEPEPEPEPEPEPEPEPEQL

B1: anti-LAG-3 antibody agent TSR-033 (antibody, human IgG4 S228P, kappa, V domains shown)
VH: EVQLVQSGAEVKKPGATVKISCKASGFSIKDDYIHWVQQAPGKGLEWMGWIDAMNDDSQYSSKFQGRVTITVDTSTNTAYMKLSSLRSEDTAVYYCTYAFGGYWGQGTTVTVSS
VL: DIVMTQTPLSLSVTPGQPASISCRSSQSLVHSDSNTYLHWYLQKPGQSPQLLIYLVSNRFSGVPDRFSGSGSGTDFTLKISRVEAEDVGVYFCGQSTHVPYAFGGGTKVEIKR
modifications: N-glycosylation at N291 of the heavy chain
notes: also called exemplary anti-LAG-3 antibody agent; exemplary anti-LAG-3 antibody
- IC50 [1]: 3.4 nM
- EC50 (read off the curve) [2]: ~0.06 µg/mL
- Kd [3]: 0.95 nM
- koff [3]: 0.00013 s⁻¹
- Kd [4]: 2 nM
- koff [4]: 0.00026 s⁻¹
- EC50 (read off the curve); NFAT-luciferase reporter signal (RLU) [5]: ~70 nM
- EC50 [6]: 2.6 nM
- EC50 [7]: 0.8 nM
